Source: patent US20190382503A1 (published 2019)

Key:
[1] = molecular target: T1, human 5T4 on cells (human, UniProt Q13641 32-420); experiment: flow cytometry, JEG cells, streptavidin-PE, normalized MFI of 2 pooled experiments
T1 construct: Human 5T4 on transfected cells (CHO-K1, CT26, B16) or endogenous on human tumour lines; the cell line is named under assay; also called trophoblast glycoprotein; TPBG
T1 sequence: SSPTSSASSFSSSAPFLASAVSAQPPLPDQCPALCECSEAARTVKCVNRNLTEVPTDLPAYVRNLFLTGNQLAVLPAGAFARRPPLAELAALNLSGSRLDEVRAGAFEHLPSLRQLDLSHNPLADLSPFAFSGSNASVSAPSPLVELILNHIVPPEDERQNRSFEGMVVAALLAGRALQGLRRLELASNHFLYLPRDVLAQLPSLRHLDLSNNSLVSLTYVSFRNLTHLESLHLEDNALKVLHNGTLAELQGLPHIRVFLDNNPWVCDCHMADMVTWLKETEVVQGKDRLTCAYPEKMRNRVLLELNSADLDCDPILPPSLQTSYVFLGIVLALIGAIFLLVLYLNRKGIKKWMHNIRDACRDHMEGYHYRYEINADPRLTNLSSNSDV
Procedure: (§1) FACS staining and analysis of 5T4-expressing cell lines: Prior to the FACS staining, all cell lines were characterized for their 5T4 expression levels using a receptor density kit (Quantum Simply Cellular, anti-human IgG, Bangs Laboratories, Inc). Adherent cell lines were cultured according to their supplier's instructions and were harvested from their cell culture flasks using Trypsin/EDTA, counted in R10 medium in a Burker chamber, and diluted in FACS buffer (PBS+0.5% BSA, 0.05% NaN₃) to a concentration of 4×10⁶ cells/mL. 50 μL (0.20×10⁶) of cell solution was added to a 96-well FACS staining plate (Falcon #351190). Cells were incubated for 20 min in 4° C. with 50 μL of the biotinylated ALG.APV-210 (2× final concentration). The antibodies were added in a serial dilution starting at 20 μg/mL titrating down in a 12 step 1/2 dilution down to 0.010 μg/mL. […] Cells were analysed for ALG.APV-210 binding using flow cytometry (FACSVerse) by gating on single cells. MFI values (secondary antibody only subtracted) from 1 out of 2 independent experiments, as well as normalized data and EC₅₀-values of pooled data from 2 experiments were determined and plotted using GraphPad Prism 7, non-linear regression log (agonist) vs. normalized response-variable slope.

[2] = molecular target: T1, human 5T4 on cells; experiment: flow cytometry, HT-29 cells, streptavidin-PE, normalized MFI of 2 pooled experiments
Procedure: as §1

[3] = molecular target: T1, human 5T4 on cells; experiment: flow cytometry, CT26-hu5T4^high cells, streptavidin-PE, normalized MFI of 2 pooled experiments
Procedure: Biotinylation: In order to detect ALG.APV-210 binding to 5T4-expressing cell lines, ALG.APV-210 was first biotinylated. The quality of the biotinylated protein and the impact on binding to its targets was assessed using ELISA.
as §1, with “concentration).” for “concentration). The antibodies were added in a serial dilution starting at 20 μg/mL titrating down in a 12 step 1/2 dilution down to 0.010 μg/mL.”

B1: biotinylated ALG.APV-210 (bispecific antibody)
chain: EVQLLESGGGLVQPGGSLRLSCAASGFTFSHGSMYWVRQAPGKGLEWVSSISSGSGSTYYADSVKGRFTISHDNSKNTLYLQMNSLRAEDTAVYYCARSSYYGSYYSIDYWGQGTLVTVSSGGGGSGGGGSGGGGSGGGGSDIQMTQSPSSLSASVGDRVTITCRASQSISSYLNWYQQKPGKAPKLLIYAASSLQSGVPSRFSGSGSGTDFTLTISSLQPEDFATYYCQQYYDNLPTFGQGTKLEIKEPKSSDKTHTCPPCPAPEAAGAPSVFLFPPKPKDTLMISRTPEVTCVVVDVSHEDPEVKFNWYVDGVEVHNAKTKPREEQYNSTYRVVSVLTVLHQDWLNGKEYKCAVSNKALPAPIEKTISKAKGQPREPQVYTLPPSRDELTKNQVSLTCLVKGFYPSDIAVEWESNGQPENNYKTTPPVLDSDGSFFLYSKLTVDKSRWQQGNVFSCSVMHEALHNHYTQKSLSLSPGSGGGGSGGGGSGGGGSPSEVQLLESGGGLVQPGGSLRLSCAASGFTFSSYAMSWVRQAPGKCLEWVSAISGSGGSTYYADSVKGRFTISRDNSKNTLYLQMNSLRAEDTAVYYCARYYGGYYSAWMDYWGQGTLVTVSSGGGGSGGGGSGGGGSGGGGSDIQMTQSPSSLSASVGDRVTITCRASQSISSFLNWYQQKPGKAPKLLIYAASSLQSGVPSRFSGSGSGTDFTLTISSLQPEDSATYYCQQTYGYLHTFGCGTKLEIKR
modifications: biotinylated (sites not given)
- EC50 [1]: 8 nM
- EC50 [2]: 12 nM
- EC50 [3]: 20 nM
